Test results as given in paper PMC4148842.
Values belong to the substance of their own block, whether it stands above or below them.

What was measured:
peptide II-44A = assay: solid-phase binding assay (SPBA); conditions: read off a plot
peptide II-44E = assay: solid-phase binding assay (SPBA); conditions: read off a plot
peptide II-44C = assay: solid-phase binding assay (SPBA); conditions: read off a plot
peptide II-44I = assay: solid-phase binding assay (SPBA); conditions: read off a plot
peptide II-44B = assay: solid-phase binding assay (SPBA); conditions: read off a plot
peptide II-44F = assay: solid-phase binding assay (SPBA); conditions: read off a plot
peptide II-44G = assay: solid-phase binding assay (SPBA); conditions: parent: est. 0.10; read off a plot
Toolkit peptide II-44 = assay: ELISA; solid-phase binding assay (SPBA), Fig. 1: Toolkit II peptides, fibrillar type I collagen or GPP10 coated at 10 μg/ml on Immulon 2 HB wells; MMP preparation or Hpx at 83 nM in TBS with 1 mg/ml BSA and 0.1% Tween-20, 1 h at 24 °C; detected with an antibody to the MMP-13 hinge region (Hpx: anti-GST), A450
peptide II-44J [1] = assay: ELISA; SPBA on truncated and Ala-substituted II-44 variant peptides, carried out as for Fig. 1 (Fig. 4)
Toolkit peptide II-52 = assay: ELISA; solid-phase binding assay (SPBA), Fig. 1: Toolkit II peptides, fibrillar type I collagen or GPP10 coated at 10 μg/ml on Immulon 2 HB wells; MMP preparation or Hpx at 83 nM in TBS with 1 mg/ml BSA and 0.1% Tween-20, 1 h at 24 °C; detected with an antibody to the MMP-13 hinge region (Hpx: anti-GST), A450
Toolkit peptide II-28 = assay: as above
Toolkit peptide II-13 = assay: as above
Toolkit peptide II-17 = assay: as above
Toolkit peptide II-53 = assay: as above
Toolkit peptide II-55 = assay: as above
Toolkit peptide II-56 = assay: as above
Toolkit peptide II-50 = assay: as above
Toolkit peptide II-49 = assay: as above
Toolkit peptide II-21 = assay: as above
Toolkit peptide II-51 = assay: as above
Toolkit peptide II-24 = assay: as above
Toolkit peptide II-54 = assay: as above
Toolkit peptide II-45 = assay: as above
[2] = molecular target: Monomeric collagen (type I) (UniProt P02453); assay: ELISA; SPBA, increasing concentrations of MMP-13 or MMP-13(E204A) on wells coated with fibrillar or monomeric type I collagen (10 μg/ml); KD from fitted curves (Fig. 3)
Sequence of Monomeric collagen (type I) (P02453 162-1217, chain 1 of 2): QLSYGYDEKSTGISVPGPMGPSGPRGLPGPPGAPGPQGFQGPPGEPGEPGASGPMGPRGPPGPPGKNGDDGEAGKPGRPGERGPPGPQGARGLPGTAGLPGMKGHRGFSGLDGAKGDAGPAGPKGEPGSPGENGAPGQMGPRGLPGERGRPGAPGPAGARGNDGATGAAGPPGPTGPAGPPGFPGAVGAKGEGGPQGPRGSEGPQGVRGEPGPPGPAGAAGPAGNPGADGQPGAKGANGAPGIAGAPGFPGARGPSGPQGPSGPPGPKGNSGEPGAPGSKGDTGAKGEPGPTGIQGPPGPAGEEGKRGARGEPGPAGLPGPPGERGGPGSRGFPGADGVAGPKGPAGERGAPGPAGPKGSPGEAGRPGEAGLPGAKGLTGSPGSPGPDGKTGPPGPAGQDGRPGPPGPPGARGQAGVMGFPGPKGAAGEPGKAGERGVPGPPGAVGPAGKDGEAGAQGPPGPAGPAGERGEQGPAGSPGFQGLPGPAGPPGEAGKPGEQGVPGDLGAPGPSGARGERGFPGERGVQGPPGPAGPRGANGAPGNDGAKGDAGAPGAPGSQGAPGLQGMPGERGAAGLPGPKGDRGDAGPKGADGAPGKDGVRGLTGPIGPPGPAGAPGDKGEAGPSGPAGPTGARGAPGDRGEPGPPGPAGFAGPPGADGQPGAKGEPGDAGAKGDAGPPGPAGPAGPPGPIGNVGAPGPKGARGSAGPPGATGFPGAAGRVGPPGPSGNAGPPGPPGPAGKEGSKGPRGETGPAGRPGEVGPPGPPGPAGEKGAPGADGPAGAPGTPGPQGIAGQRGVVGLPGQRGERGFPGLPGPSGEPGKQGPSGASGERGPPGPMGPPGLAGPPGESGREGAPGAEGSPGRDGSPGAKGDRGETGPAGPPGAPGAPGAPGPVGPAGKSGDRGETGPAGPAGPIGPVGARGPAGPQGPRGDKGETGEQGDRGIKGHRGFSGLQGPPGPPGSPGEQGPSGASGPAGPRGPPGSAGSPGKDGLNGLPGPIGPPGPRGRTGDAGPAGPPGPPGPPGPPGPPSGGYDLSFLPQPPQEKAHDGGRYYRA
Sequence of Monomeric collagen (type I) (P02465 80-1117, chain 2 of 2, further chain): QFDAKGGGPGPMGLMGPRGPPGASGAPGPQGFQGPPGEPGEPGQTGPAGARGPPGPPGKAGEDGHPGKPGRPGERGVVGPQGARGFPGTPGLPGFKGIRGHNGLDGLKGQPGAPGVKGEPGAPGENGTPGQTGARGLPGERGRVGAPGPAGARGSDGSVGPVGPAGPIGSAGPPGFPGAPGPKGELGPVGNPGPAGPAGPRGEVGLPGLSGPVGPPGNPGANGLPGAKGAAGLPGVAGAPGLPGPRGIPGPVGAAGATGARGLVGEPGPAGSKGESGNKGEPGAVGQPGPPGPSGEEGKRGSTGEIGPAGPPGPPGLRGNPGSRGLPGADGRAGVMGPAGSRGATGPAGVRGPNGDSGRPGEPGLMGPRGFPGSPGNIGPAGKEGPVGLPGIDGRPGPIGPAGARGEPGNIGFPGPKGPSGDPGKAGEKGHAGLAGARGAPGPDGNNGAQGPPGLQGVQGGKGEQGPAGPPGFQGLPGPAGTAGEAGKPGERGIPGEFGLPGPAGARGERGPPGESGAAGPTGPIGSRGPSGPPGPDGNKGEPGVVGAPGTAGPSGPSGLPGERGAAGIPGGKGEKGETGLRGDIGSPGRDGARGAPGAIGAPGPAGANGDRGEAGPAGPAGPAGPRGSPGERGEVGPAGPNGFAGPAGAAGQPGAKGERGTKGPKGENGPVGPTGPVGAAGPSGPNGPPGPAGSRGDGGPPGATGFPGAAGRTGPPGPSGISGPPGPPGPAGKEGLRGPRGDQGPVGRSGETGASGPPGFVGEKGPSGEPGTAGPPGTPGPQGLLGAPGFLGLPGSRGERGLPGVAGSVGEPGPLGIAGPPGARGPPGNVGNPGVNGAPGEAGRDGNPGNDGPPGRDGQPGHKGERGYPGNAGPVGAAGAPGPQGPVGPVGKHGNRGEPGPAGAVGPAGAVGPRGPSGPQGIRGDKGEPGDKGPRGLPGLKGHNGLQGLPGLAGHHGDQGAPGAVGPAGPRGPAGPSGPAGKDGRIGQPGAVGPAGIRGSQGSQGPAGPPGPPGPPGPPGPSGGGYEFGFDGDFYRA

[3] = molecular target: Fibrous bovine type I collagen (bovine) (UniProt P02453); assay: as above
Sequence of Fibrous bovine type I collagen (bovine) (P02453 162-1217, chain 1 of 2): as the sequence (P02453 162-1217, chain 1 of 2) above
Sequence of Fibrous bovine type I collagen (bovine) (P02465 80-1117, chain 2 of 2, further chain): as the sequence (P02465 80-1117, chain 2 of 2, further chain) above

[4] = molecular target: Fibrous bovine type I collagen (bovine) (UniProt P02453); assay: ELISA; solid-phase binding assay (SPBA), Fig. 1: Toolkit II peptides, fibrillar type I collagen or GPP10 coated at 10 μg/ml on Immulon 2 HB wells; MMP preparation or Hpx at 83 nM in TBS with 1 mg/ml BSA and 0.1% Tween-20, 1 h at 24 °C; detected with an antibody to the MMP-13 hinge region (Hpx: anti-GST), A450
peptide II-44D = assay: solid-phase binding assay (SPBA); conditions: parent: est. 0.19; read off a plot
peptide II-44H = assay: solid-phase binding assay (SPBA); conditions: parent: est. 0.31; read off a plot
peptide II-44J [5] = assay: solid-phase binding assay (SPBA); conditions: parent: est. 0.26; read off a plot

- response (peptide II-44A; parent: est. 0.19): 1.1 A450
- response (peptide II-44E; parent: est. 0.16): 0.95 A450
- response (peptide II-44C; parent: est. 0.18): 0.87 A450
- response (peptide II-44I; parent: est. 0.20): 1.1 A450
- response (peptide II-44B; parent: est. 0.09): 0.15 A450
- response (peptide II-44F; parent: est. 0.08): 0.57 A450
- response (peptide II-44G): 0.57 A450
Substance: MMP-13 (from UniProt P45452) E204A

- A450 (Toolkit peptide II-52): > 0.3 A450
- A450 (Toolkit peptide II-28): < 0.2 A450
- A450 (Toolkit peptide II-13): > 0.3 A450
- A450 (Toolkit peptide II-17): > 0.3 A450
- A450 (Toolkit peptide II-53): > 0.3 A450
- A450 (Toolkit peptide II-55): > 0.3 A450
- A450 (Toolkit peptide II-56): > 0.3 A450
- A450 (Toolkit peptide II-50): > 0.3 A450
- A450 (Toolkit peptide II-49): > 0.3 A450
- A450 (Toolkit peptide II-21): > 0.3 A450
- A450 (Toolkit peptide II-51): > 0.3 A450
- A450 (Toolkit peptide II-24): < 0.2 A450
- A450 (Toolkit peptide II-54): > 0.3 A450
- A450 (Toolkit peptide II-45): > 0.3 A450
- A450 (Toolkit peptide II-44): > 1.2 A450
- A450 (peptide II-44J [1]): 0.8 A450
- Kd [2]: 26 nM
- Kd [3]: 52 nM
Substance: MMP-13(E204A) (enzyme)

- response (peptide II-44A; parent: est. 0.41): 0.41 A450
- response (peptide II-44D): 0.15 A450
- response (peptide II-44E; parent: est. 0.33): 0.31 A450
- response (peptide II-44H): 0.29 A450
- response (peptide II-44C; parent: est. 0.24): 0.23 A450
- response (peptide II-44I; parent: est. 0.41): 0.36 A450
- response (peptide II-44B; parent: est. 0.08): 0.08 A450
- response (peptide II-44J [5]): 0.29 A450
- response (peptide II-44F; parent: est. 0.09): 0.12 A450
Substance: proMMP-13 (from UniProt P45452) E204A

Further lines, the substance ahead of its results:

Substance: MMP-13 GST-Hpx domain (domain or fragment)
- A450 (Toolkit peptide II-44): 0.8 A450
- A450 (peptide II-44J [1]): 0.4 A450

Substance: proMMP-13 (from UniProt P45452 20-471) (enzyme)
- A450 [4]: > 1 A450
